Measured values published in paper PMC2787996 (Biochemical and biophysical research communications, 2009).

Biological target: T1, dDis3-FLAG (Drosophila melanogaster, UniProt Q9VC93 1-982)
T1 sequence (looked up): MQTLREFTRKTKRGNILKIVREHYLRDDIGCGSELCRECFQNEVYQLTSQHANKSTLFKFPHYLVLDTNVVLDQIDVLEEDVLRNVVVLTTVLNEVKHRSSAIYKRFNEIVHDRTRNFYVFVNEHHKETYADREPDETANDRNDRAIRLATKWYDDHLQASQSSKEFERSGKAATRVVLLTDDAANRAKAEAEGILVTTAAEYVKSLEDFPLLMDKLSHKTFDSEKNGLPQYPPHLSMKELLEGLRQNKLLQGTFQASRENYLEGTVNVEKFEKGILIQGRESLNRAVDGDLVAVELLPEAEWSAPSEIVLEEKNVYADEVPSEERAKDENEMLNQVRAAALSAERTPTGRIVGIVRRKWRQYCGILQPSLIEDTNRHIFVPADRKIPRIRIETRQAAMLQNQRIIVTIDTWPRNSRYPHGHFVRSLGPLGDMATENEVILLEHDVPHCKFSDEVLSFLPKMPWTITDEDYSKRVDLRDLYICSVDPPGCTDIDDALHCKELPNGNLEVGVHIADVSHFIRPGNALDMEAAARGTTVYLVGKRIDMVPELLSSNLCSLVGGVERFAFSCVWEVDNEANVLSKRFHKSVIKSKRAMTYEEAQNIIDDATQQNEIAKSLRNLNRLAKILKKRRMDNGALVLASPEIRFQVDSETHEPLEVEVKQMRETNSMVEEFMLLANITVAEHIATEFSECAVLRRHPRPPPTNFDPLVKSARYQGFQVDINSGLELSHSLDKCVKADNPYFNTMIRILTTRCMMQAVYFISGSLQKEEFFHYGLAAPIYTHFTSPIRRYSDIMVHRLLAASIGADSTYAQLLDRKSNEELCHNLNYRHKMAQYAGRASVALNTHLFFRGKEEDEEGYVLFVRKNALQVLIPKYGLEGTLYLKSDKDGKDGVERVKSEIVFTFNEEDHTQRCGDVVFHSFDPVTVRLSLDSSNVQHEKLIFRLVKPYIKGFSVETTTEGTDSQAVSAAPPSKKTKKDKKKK
Test: co-IP

B1: dRrp6 (natural protein, UniProt Q9VFF3 1-900, looked up)
chain: MPRTPKRVHQEAKEESAQADQPPKKSASEDVEAFTNKGFKNAIAATKAANAFPQGTARALYLSYPGYARVMEDLTQRVVALIGNVLHSKDIKGDIKKRQPEEQFEMVQECNDVLFERITTNLDIKGGLRRNTQQVVEAQVDVMSSSTSIEPAVASPQTQGTPKAGSWNRTTGTPQRSMVSARLFTAKNIVRPQTQFREPVDNSAQNPFVPRLKEKPNSLKPLALLPEYDDAGNVQSYLHPYEFELLKFQPPEEQFQKQKPVLPALMAETELMVVDTVEKLKQALEELRQAPQIAIDVEHHSYRTFMGITCLVQMSTRSKDYIFDTLILRDDMHILNLVLTDPKKLKILHGADLDIEWLQRDLSLYIVNMFDTHRAAKALNMARLSLAYLLKHYLDLDVDKSLQLADWRMRPLPQQLVDYARQDTHFLIYVYGRMTNDLLQQHAEPGLLGSVYQQSTDVCKKRYNKPHIGPESHLDLVRKTKRSFDNRQLYALRGIFEWRDATARSEDESYGYVLPNHMMLQIAESLPREMQGILACCNPIPPLVRQQLHTLHQIVLKARDQPLVKPILEAHSSTQAALPPSTKDFSSKLYCPHDFSQLEEIRDDLPTLLKRNSTTGKLEVPNKEEVAKVDPTLAAPAMALFEKQSKPTQEEEQRWAHLRKESQTMRMPYKRYLAILPLMVQLKADQLARERSELQKRQLCPAAPTVEQNIKLEAHAIGKEDDDMYSVPLKEQLKRKHPQANVKTDPEQQPTASKRPRKDENSQTKPPVKIEPVEKVQQALGESDDEVVEVPIERQATEPPKPSPAQNNRKQKKNQFQRGFKAKNRGNHPQSSSQQVPQHKGTGNFDYKNVDFRQFKGGAQRARGTEIKQQIRGKNRPNNRNNKQFNKLFTFSNVRKEGKK
fold reduction in recovery (0.2 M Mg2+ against 0.01 M Mg2+): ~2 fold
